{
  "source": "paper PMC3272785",
  "proteins": {"B1": {"name": "yeast cytosine deaminase (yCD) (Saccharomyces cerevisiae S288C) (protein)", "chain": "MASKWDQKGMDIAYEEAALGYKEGGVPIGGCLINNKDGSVLGRGHNMRFQKGSATLHGEISTLENCGRLEGKVYKDTTLYTTLSPCDMCTGAIIMYGIPRCVVGENVNFKSKGEKYLQTRGHEVVVVDDERCKKIMKQFIDERPQDWFEDIGE"}},
  "substrate": "Nc1nc(=O)[nH]cc1F",
  "test": "steady-state kinetics",
  "format": "biochemical, Saccharomyces cerevisiae",
  "details": "Zn2+",
  "data": [
    {"protein": "B1", "values": [
      {"measurement": "Km", "value": "160 ± 10", "unit": "µM"},
      {"measurement": "kcat", "value": "17 ± 0.4", "unit": "s⁻¹"},
      {"measurement": "kcat/Km", "value": 106000, "unit": "M⁻¹ s⁻¹"}
    ]}
  ]
}
